Measurements as given in US12365732 (23ANDME, dated 2025).

Tests used:
[1] = molecular target: T1, hu-CD96 isoform 2 on CHO cells (human, UniProt P40200 22-585); experiment: FACS, Ab 2 nM
T1 construct: also called CHO-CD96 (isoform 2); CD96-CHOs
T1 sequence: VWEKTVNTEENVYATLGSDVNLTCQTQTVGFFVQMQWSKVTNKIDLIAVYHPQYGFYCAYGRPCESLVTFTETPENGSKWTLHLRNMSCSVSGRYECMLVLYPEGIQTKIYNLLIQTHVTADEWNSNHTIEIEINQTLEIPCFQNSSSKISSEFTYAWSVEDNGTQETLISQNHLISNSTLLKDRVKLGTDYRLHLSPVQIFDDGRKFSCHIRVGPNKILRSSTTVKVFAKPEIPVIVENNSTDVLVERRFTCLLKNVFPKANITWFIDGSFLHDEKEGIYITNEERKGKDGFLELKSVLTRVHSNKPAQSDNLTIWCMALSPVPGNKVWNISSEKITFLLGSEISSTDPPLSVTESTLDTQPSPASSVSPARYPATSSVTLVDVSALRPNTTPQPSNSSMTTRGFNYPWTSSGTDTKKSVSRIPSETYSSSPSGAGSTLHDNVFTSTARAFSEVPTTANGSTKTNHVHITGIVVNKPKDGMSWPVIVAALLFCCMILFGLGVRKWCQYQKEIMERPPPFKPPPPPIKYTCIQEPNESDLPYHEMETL
Description: (§1) Isoform 1 of hu-CD96 (Origene, catalog #RC213845) was transiently expressed in HEK293T cells following standard lipofectamine or Fugene transfection protocol. […] Cells were washed, and binding was detected by incubation with anti-mouse IgG-FITC (Biolegend, catalog #406001) for 20 minutes at 4° C. Cell binding was analyzed by flow cytometry with a CytoFLEX (Beckman Coulter). Binding curves were calculated as a percentage of cells positive for bound antibody.
(§2) Isoform 2 of hu-CD96 (DNA construct: Origene, catalog #RC221005) was expressed on a single-cell-clone-derived CHO stable cell line. Binding of the anti-CD96 antibodies to the CHO cells were determined as described above with isoform 1 of hu-CD96.

[2] = molecular target: T1, hu-CD96 isoform 2 on CHO cells; experiment: FACS, Ab 0.016 nM
Description: as §1, §2

[3] = molecular target: T2, hu-CD96 isoform 1 on HEK293T cells (human, UniProt P40200 22-585); experiment: FACS, % positive curve
T2 construct: Origene RC213845, transient expression; also called HEK293T-CD96 (iso1)
T2 sequence: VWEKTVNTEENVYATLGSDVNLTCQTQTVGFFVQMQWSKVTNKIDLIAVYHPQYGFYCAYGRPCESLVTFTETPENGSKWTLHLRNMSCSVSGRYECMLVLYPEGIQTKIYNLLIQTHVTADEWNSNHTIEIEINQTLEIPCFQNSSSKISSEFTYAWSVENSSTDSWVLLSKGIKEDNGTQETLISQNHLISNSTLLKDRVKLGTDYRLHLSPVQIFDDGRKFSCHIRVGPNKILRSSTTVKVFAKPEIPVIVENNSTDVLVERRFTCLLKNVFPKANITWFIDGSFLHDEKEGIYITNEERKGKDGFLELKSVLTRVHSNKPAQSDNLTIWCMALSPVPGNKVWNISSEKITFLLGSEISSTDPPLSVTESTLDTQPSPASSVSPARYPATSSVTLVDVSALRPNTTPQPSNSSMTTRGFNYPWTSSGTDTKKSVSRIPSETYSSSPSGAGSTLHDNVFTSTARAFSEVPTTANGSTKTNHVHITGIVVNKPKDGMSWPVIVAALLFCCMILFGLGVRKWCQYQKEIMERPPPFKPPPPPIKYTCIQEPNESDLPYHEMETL
Description: as §1

[4] = molecular target: T3, cynomolgus monkey CD96 on cynomolgus monkey PBMCs (cynomolgus monkey, UniProt A0A2K5TWV6 22-569); experiment: FACS, % positive curve
T3 construct: whole, on cells
T3 sequence: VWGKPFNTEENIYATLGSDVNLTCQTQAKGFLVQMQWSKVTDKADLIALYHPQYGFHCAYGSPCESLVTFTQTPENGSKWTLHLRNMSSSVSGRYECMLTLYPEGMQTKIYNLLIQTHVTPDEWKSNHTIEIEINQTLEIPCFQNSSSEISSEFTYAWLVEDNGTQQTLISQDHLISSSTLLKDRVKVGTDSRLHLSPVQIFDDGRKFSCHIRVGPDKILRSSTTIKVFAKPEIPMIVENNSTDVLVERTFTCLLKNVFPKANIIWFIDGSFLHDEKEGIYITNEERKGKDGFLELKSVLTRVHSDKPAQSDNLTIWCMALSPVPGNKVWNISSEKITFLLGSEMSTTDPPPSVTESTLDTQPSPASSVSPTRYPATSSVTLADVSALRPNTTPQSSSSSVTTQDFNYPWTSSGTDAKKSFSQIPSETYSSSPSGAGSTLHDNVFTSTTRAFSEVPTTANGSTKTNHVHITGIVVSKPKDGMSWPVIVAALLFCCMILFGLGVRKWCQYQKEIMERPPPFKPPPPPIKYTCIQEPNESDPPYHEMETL
Description: (§3) The ability of the anti-CD96 antibodies to bind primary immune cells from human and cynomolgus monkey with lower level of receptor expression was measured. Human PBMCs (StemCell Technologies, catalog #70025) and cynomolgus monkey PBMCs (Primate Biologicals, catalog #CM-MC) were incubated with human TruStain FcX (Biolegend, catalog #422302) for 10 minutes at 4° C., followed by incubation with an anti-CD96 antibody for 20 minutes at 4° C. Cells were washed and the anti-CD96 antibody binding was detected by incubation with anti-mouse IgG-PE (Thermo Fisher, catalog #M30204) or anti-human IgG (Fab) 2-PE (Thermo Fisher, catalog #H10104) for 20 minutes at 4° C. Cells were washed, and immune subtypes were labeled with anti-CD3 (BD, catalog #557705), anti-CD4 (Biolegend, catalog #317424) and anti-CD8 (BD, catalog #557760) for 20 minutes at 4° C. Cell binding was analyzed by flow cytometry with a CytoFLEX (Beckman Coulter). Binding curves were calculated as a percentage of cells positive for bound antibody in the cell type of interest.

[5] = molecular target: T3, cynomolgus monkey CD96 on cynomolgus …; experiment: FACS, Ab 16 nM
Description: as §3

[6] = molecular target: T3, cynomolgus monkey CD96 on cynomolgus …; experiment: FACS, Ab 0.128 nM
Description: as §3

[7] = molecular target: T3, cynomolgus monkey CD96 on cynomolgus …; experiment: FACS, Ab 0.64 nM
Description: as §3

B1: 10G1 (clone 10G1.3G8), purified hybridoma antibody (antibody, V domains shown)
VH: QIQLVQSGPELKKPGETVKISCKASGYPFTTYGMSWVKQAPGKGLKWMGWINTDSGVPTYADDFKGRFAFSLETSANTAYLQINSLKNEDAATYFCARNIYYGWGNFDYWGQGTILTVSS
VL: DILMTQSPTTLSVTPGETVSLSCRASQDIYRNLHWYQQKSQGTPRLLIKHASDSISGIPSRFTGSGSGTDFTLSINSVKPEDEGIYYCLQGYSMPYTFGGGTKLEIK
notes: murine hybridoma IgG
- % positive [1]: 34.9%
- % positive [2]: 0.4%
- EC50 [3]: 0.24 nM

B2: h10G1 IgG (humanized 10G1) (antibody, V domains shown)
VH: EIQLVQSGSELKKPGASVKVSCKASGYPFTTYGMSWVRQAPGQGLEWMGWINTDSGVPTYADDFKGRFVFSLDTSVSTAYLQISSLKAEDTAVYFCARNIYYGWGNFDYWGQGTLVTVSS
VL: EIVMTQSPDFQSVTPKEKVTITCRASQDIYRNLHWYQQKPDQTPKLLIKHASDSISGIPSRFSGSGSGTDFTLTINSLEAEDAAAYYCLQGYSMPYTFGGGTKVEIKG
notes: human IgG1 N297G
- EC50 [4]: 0.12 nM
- % positive [5]: 66.1%
- % positive [6]: 38.2%
- % positive [7]: 51.2%

B3: mAb1.v7 IgG (humanized 12F8) (antibody, V domains shown)
VH: EVQLVQSGAEVKKPGASVKVSCKASGFTFTNNWMHWVRQAPGQGLEWIGMIHPNSGITNINEKFKNRVTMTTDTSTSTAYMELRSLRSEDTAVYYCRSDGTYEGYFDYWGQGTLVTVSS
VL: DIQLTQSPSSLSASVGDRVTITCKASQNVGTAIVWYQQKPGKAPKVLIYSASTRYTGVPSRFSGSGSGTDFTLTISSLQPEDFATYYCQQYSSSPLTFGQGTKVEIKG
notes: human IgG1 N297G
- % positive [1]: 42.4%
- % positive [2]: 0.4%
- EC50 [3]: 2.6 nM

B4: mAb1.v7.NGS10 IgG (antibody, V domains shown)
VH: EVQLVQSGAEVKKPGASVKVSCKASGFTFTNNFMHWVRQAPGQGLEWIGFIHANSGITNINEKFKNRVTMTTDTSTSTAYMELRSLRSEDTAVYYCRSDGIYEGYFDYWGQGTLVTVSS
VL: DIQLTQSPSSLSASVGDRVTITCKASQNVGTAIVWYQQKPGKAPKVLIYSASTRYTGVPSRFSGSGSGTDFTLTISSLQPEDFATYYCQQYSSSPLTFGQGTKVEIKG
notes: human IgG1 N297G
- EC50 [4]: 0.024 nM
- % positive [5]: 78.5%
- % positive [6]: 64.6%
- % positive [7]: 73.1%

B5: mAb1.v7.NGS11 IgG (antibody, V domains shown)
VH: EVQLVQSGAEVKKPGASVKVSCKASGFTFTNNFMHWVRQAPGQGLEWIGFIHANSGITNINEKFKNRVTMTTDTSTSTAYMELRSLRSEDTAVYYCRSDGVYEGYFDYWGQGTLVTVSS
VL: DIQLTQSPSSLSASVGDRVTITCKASQNVGTAIVWYQQKPGKAPKVLIYSASTRYTGVPSRFSGSGSGTDFTLTISSLQPEDFATYYCQQYSSSPLTFGQGTKVEIKG
notes: human IgG1 N297G
- EC50 [4]: 0.025 nM
- % positive [5]: 80.8%
- % positive [6]: 63.5%
- % positive [7]: 74.3%

B6: mAb1.v7.NGS9 IgG (antibody, V domains shown)
VH: EVQLVQSGAEVKKPGASVKVSCKASGFTFTNNFMHWVRQAPGQGLEWIGMIHANSGITNINEKFKNRVTMTTDTSTSTAYMELRSLRSEDTAVYYCRSDGVYEGYFDYWGQGTLVTVSS
VL: DIQLTQSPSSLSASVGDRVTITCKASQNVGTAIVWYQQKPGKAPKVLIYSASTRYTGVPSRFSGSGSGTDFTLTISSLQPEDFATYYCQQYSSSPLTFGQGTKVEIKG
notes: human IgG1 N297G
- EC50 [4]: 0.073 nM
- % positive [5]: 76.1%
- % positive [6]: 49.4%
- % positive [7]: 71%

B7: 9H4, purified hybridoma antibody (antibody, V domains shown)
VH: EVQLLETGGGLVKSGGSLKLSCAASGFTFSDYYMYWVRQTPEKRLEWVAAISDDGTYTYYPDSVKGRFTISRDNANNYLYLQMSSLKSEDTAIYYCAKAGSYDYFDVWGAGTTVTVSS
VL: DIVLTQSPASLAVSLGQRAIISCKASQSVTFADTGLMHWYQQKPGQQPKLLIYRASNLEVGVPTRFSGSGSGTDFTLNIHPVEEEDVATYYCQQSREYPWTFGGGTKLEIK
notes: murine hybridoma IgG
- % positive [1]: 44.2%
- % positive [2]: 0.3%
- EC50 [3]: 2.1 nM

B8: 7E5, purified hybridoma antibody (antibody, V domains shown)
VH: QVQLKESGPGLVAPSQSLSIICTVSGFSLTNYGIHWIRQPPGKGLEWLGIIWAGGSTNYNSALMSRLTISKDNSKSQVFLKMNSLQTNDTAIYYCARVSMMGFAYWGQGTLVTVSA
VL: QAVVTQESALTTSPGETVTLTCRSSTGAVTTSNYANWVQEKPDHLFTGLIGGTNNRAPGVPARFSGSLIGDKAALTITGAQTEDEAIYFCSLWYGSHWVFGGGTKLTVL
notes: murine hybridoma IgG
- % positive [1]: 53.3%
- % positive [2]: 3.6%
- EC50 [3]: 0.71 nM
